From PMC4275181

Columns and labels:
Assay in all cases: filter binding
[1] = biological target: T1, Sc CTD (Saccharomyces cerevisiae) (UniProt P48527); details: 25C; n=1.8; 100 mM KCl, 5 mM MgCl2, 20 mM Tris-HCl pH 7.5, 5 mM DTT, 0.1 mg/ml BSA, 10% glycerol, 5 pM RNA, 30 min, 25C or 37C; nitrocellulose/nylon filter
T1 sequence: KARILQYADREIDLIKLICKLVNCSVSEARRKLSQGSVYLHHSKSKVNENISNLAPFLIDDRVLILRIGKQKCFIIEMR

[2] = biological target: T2, CYT-18 NTDs (Neurospora crassa) (UniProt P12063); details: 100 mM KCl, 5 mM MgCl2, 20 mM Tris-HCl pH 7.5, 5 mM DTT, 0.1 mg/ml BSA, 10% glycerol, 5 pM RNA, 30 min, 25C or 37C, nitrocellulose/nylon filter
T2 sequence: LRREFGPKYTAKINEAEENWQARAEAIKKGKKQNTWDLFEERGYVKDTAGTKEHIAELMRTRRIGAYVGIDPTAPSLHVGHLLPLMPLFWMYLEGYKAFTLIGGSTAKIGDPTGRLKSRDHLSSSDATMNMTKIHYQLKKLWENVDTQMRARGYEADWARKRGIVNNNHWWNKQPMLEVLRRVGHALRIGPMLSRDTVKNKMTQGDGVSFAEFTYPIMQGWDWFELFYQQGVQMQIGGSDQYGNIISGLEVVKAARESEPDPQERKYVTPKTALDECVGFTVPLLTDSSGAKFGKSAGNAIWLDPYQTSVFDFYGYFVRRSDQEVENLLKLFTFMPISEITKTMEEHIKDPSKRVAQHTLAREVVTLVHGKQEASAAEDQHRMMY

[3] = tested on: Sc mtTyrRS (Saccharomyces cerevisiae); details: 100 mM KCl, 5 mM MgCl2, 20 mM Tris-HCl pH 7.5, 5 mM DTT, 0.1 mg/ml BSA, 10% glycerol, 5 pM RNA, 30 min, 25C or 37C; nitrocellulose/nylon filter

Substance | K half [1] | Kd [2] | K half ([2]; 25C, n=1.6) | Kd [3] | Kd ([2]; 25C, low end of stated range, strongest group I intron) | Kd ([2]; 37C, low end of stated range, strongest group I intron) | Kd ([2]; 25C, high end of stated range, weakest group I intron) | Kd ([2]; 37C, high end of stated range, weakest group I intron)
Ll.LtrB group II intron RNA (dORF, branch-point nucleotide deleted) | 110 nM | 440 nM | 240 nM | 440 nM | – | – | – | –
Nc ND1m group I intron RNA | – | – | – | – | 200 nM | 440 nM | – | –
Nc mt LSU group I intron RNA | – | – | – | 430 nM | – | – | 590 nM | 740 nM
